Experimental data reported in patent US20090214427.

What was measured:
[1] = biological target: T1, synthetic peptide HK2p02 (AARRPFPAPS)
T1 chain: AARRPFPAPS

[2] = biological target: T2, synthetic peptide HK2p03 (PARRPFPVTA)
T2 chain: PARRPFPVTA

[3] = biological target: T3, synthetic peptide HK2p01 (SRFKVWWAAG)
T3 chain: SRFKVWWAAG

Measured: enzyme activity (chromogenic substrate)

B1: human trypsin 2 (protein)
chain: IVGGYICEENSVPYQVSLNSGYHFCGGSLISEQWVVSAGHCYKSRIQVRLGEHNIEVLEGNEQFINAAKIIRHPKYNSRTLDNDILLIKLSSPAVINSRVSAISLPTAPPAAGTESLISGWGNTLSSGADYPDELQCLDAPVLSQAECEASYPGKITNNMFCVGFLEGGKDSCQGDSGGPVVSNGELQGIVSWGYGCAQKNRPGVYTKVYNYVDWIKDTIAANS
showed no inhibition: all assays above

B2: human plasmin (protein)
chain: KVYLSECKTGNGKNYRGTMSKTKNGITCQKWSSTSPHRPRFSPATHPSEGLEENYCRNPDNDPQGPWCYTTDPEKRYDYCDILECEEECMHCSGENYDGKISKTMSGLECQAWDSQSPHAHGYIPSKFPNKNLKKNYCRNPDRELRPWCFTTDPNKRWELCDIPRCTTPPPSSGPTYQCLKGTGENYRGNVAVTVSGHTCQHWSAQTPHTHNRTPENFPCKNLDENYCRNPDGKRAPWCHTTNSQVRWEYCKIPSCDSSPVSTEQLAPTAPPELTPVVQDCYHGDGQSYRGTSSTTTTGKKCQSWSSMTPHRHQKTPENYPNAGLTMNYCRNPDADKGPWCFTTDPSVRWEYCNLKKCSGTEASVVAPPPVVLLPDVETPSEEDCMFGNGKGYRGKRATTVTGTPCQDWAAQEPHRHSIFTPETNPRAGLEKNYCRNPDGDVGGPWCYTTNPRKLYDYCDVPQCAAPSFDCGKPQVEPKKCPGRVVGGCVAHPHSWPWQVSLRTRFGMHFCGGTLISPEWVLTAAHCLEKSPRPSSYKVILGAHQEVNLEPHVQEIEVSRLFLEPTRKDIALLKLSSPAVITDKVIPACLPSPNYVVADRTECFITGWGETQGTFGAGLLKEAQLPVIENKVCNRYEFLNGRVQSTELCAGHLAGGTDSCQGDSGGPLVCFEKDKYILQGVTSWGLGCARPNKPGVYVRVSRFVTWIEGVMRNN
showed no inhibition: all assays above

B3: human trypsin 3 (protein)
chain: IVGGYTCEENSLPYQVSLNSGSHFCGGSLISEQWVVSAAHCYKTRIQVRLGEHNIKVLEGNEQFINAAKIIRHPKYNRDTLDNDIMLIKLSSPAVINARVSTISLPTTPPAAGTECLISGWGNTLSFGADYPDELKCLDAPVLTQAECKASYPGKITNSMFCVGFLEGGKDSCQRDSGGPVVCNGQLQGVVSWGHGCAWKNRPGVYTKVYNYVDWIKDTIAANS
showed no inhibition: all assays above
